Two molecules from US20120231021A1 (GREEN CROSS, published 2012) can be followed below.

The target of test [1] is T1, epidermal growth factor receptor (EGFR) on tumor cells (A431 epidermoid carcinoma cells); MDA-MB-231 breast … (UniProt P00533 25-1210, limits assumed).
T1 construct: whole, on cells; Endogenous receptor of the cell lines; also called EGFR overexpressed in a cancer cell line (A431); EGFR in A431 cells
Nature of the test: flow cytometry on A431 cells, 10 µg antibody.

In test [2] the target is T2, epidermal growth factor receptor (EGFR) (Sigma, U.S), purified protein (UniProt P00533 25-1210, limits assumed).
T2 construct: also called EGFR antigen
Nature of the test: competitive ELISA, EGFR-coated plate with soluble EGFR as competitor (FIG. 9).
Protocol: 100 μL of EGFR (Sigma, U.S) at a 2 μg/mL dilution in PBS was added to each well of a plate and incubated overnight at 4° C. Each well was washed once with PBST, 300 μL of 1% BSA-PBS solution was added to each well, and stored for 1 hour at room temperature.
2 μg of EGFR was diluted by a two-fold and 10 μL of the diluted EGFR was added to each well of the plate. Then, 90 μL of the antibody diluted to the optimum concentration determined in (1) was added to each well, incubated for 2 hours at room temperature, and washed 4 times with PBST.

Where a chain is given by its changes, count along the chain named.

B1: human antibody ER2 (antibody, V domains shown)
VH: EVQLVESGGGVVQPGGSLRLSCAASGFTFSDYDMSWIRQAPGKGLEWVSGILGGSERSYYRDSVKGRFTISRDNSRKTLYLQMNSLRAEDTAVYYCARHGSPGYTLYAWDYWGQGTTVTVSS
VL: DIVMTQTPLSLPVTPGEPASISCRSNQDLTHSNGNTYLEWYLQKPGQSPRLLIYKVSNRFSGVPDRFSGSGAGTDFTLRISRVEAEDVGVYYCMQGTHWPWTFGQGTKVDIKR
notes: also called ER2 antibody
Consider B1, for which the binding result in test [1] is on record as “binds”.

B2: human antibody ER79 (antibody, V domains shown)
VH: B1 VH
VL: B1 VL with N26S, D28S, L29V, T30D, H31M, S32G, N33I, T36N
notes: also called ER79 antibody
For B2, in test [2], the “fold lower affinity than C225” value is 2 times; the “percent of affinity relative to C225 and M96” value is about 63%.
